The text below walks through data of patent US20140315986A1.

The assay addresses IL-6R (UniProt P08887). Briefly: cell-based or functional assay.

Sequence of IL-6R (P08887 20-468 limits assumed): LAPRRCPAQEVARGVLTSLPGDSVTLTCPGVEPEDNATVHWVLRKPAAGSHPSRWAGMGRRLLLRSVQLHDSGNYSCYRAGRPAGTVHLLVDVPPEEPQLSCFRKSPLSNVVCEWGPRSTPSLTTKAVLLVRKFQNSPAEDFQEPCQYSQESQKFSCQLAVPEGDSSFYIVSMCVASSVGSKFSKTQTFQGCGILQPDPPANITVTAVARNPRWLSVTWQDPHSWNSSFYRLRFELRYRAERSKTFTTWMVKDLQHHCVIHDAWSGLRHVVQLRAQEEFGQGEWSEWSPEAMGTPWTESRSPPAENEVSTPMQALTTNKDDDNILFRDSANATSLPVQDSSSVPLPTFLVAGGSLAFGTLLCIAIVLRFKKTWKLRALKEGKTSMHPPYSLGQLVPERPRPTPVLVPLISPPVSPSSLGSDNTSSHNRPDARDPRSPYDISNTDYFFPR

With Tocilizumab (antibody), the Relative IL-6 Inhibition (%) of IL-6-dependent U266B1 cell proliferation, Tocilizumab at 1 µg/mL (6.7 × 10^-9 M) was 15.1%; the Relative IL-6 Inhibition (%) of IL-6-dependent U266B1 cell proliferation, Tocilizumab at 10 µg/mL (6.7 × 10^-8 M) stood at 60.7%; the Relative IL-6 Inhibition (%) of IL-6-dependent U266B1 cell proliferation, Tocilizumab at 100 µg/mL (6.7 × 10^-7 M) stood at 57%.
